This note sets out measurements from US20160230205A1 (R P SCHERER TECHNOLOGIES, published 2016).

The target in data set [1] is T1, 14 amino acid FGE substrate peptide ALCTPSRGSLFTGR
T1 chain: ALCTPSRGSLFTGR

Data set [2] has as its target T2, Streptomyces coelicolor formylglycine-generating enzyme (Sc-FGE), wild-type, with N-terminal hexahistidine … (Streptomyces coelicolor, UniProt Q9F3C7 1-314).
T2 construct: Made in E. coli BL21(DE3); also called S. coelicolor FGE; not shown: N-terminal hexahistidine tag and TEV protease cleavage site from the pET151-D/TOPO vector
T2 sequence (looked up): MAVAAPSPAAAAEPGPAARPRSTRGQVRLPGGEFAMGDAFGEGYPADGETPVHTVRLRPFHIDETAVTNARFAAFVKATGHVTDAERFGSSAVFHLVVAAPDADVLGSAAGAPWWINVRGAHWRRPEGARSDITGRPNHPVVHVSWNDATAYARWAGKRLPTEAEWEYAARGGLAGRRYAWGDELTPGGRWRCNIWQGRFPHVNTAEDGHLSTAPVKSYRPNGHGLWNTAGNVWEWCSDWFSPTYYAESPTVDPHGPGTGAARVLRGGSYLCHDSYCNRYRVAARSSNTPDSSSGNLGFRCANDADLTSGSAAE
The data set can be described thus: Michaelis-Menten kinetics from discontinuous RP-HPLC activity assay.

B1: Catalytic core of H. sapiens formylglycine-generating enzyme with TEV protease site and C-terminal His6 tag (Hs-cFGE) (protein)
chain: DRSLEANAPGPVPGERQLAHSKMVPIPAGVFTMGTDDPQIKQDGEAPARRVTIDAFYMDAYEVSNTEFEKFVNSTGYLTEVAAAPWWLPVKGANWRHPEGPDSTILHRPDHPVLHVSWNDAVAYCTWAGKRLPTEAEWEYSCRGGLHNRLFPWGNKLQPKGQHYANIWQGEFPVTNTGEDGFQGTAPVDAFPPNGYGLYNIVGNAWEWTSDWWTVHHSVEETLNPKGPPSGKDRVKKGGSYMCHRSYCYRYRCAARSQNTPDSSASNLGFRCAADRLPTMDKGENLYFQGHHHHHH
In the case of B1, the KM entry in data set [1] is on record as “KM=0.34 µM”.

B2: 14 amino acid FGE substrate peptide ALCTPSRGSLFTGR (peptide)
peptide: ALCTPSRGSLFTGR
notes: Used as substrate for both the Sc and Hs forms of the enzyme; also called Csub
With B2, the binding result in data set [2] is on record as “binds”.

B3: Streptomyces coelicolor formylglycine-generating enzyme (Sc-FGE), wild-type, with N-terminal hexahistidine tag and TEV protease cleavage site, activated with … (protein)
chain: MAVAAPSPAAAAEPGPAARPRSTRGQVRLPGGEFAMGDAFGEGYPADGETPVHTVRLRPFHIDETAVTNARFAAFVKATGHVTDAERFGSSAVFHLVVAAPDADVLGSAAGAPWWINVRGAHWRRPEGARSDITGRPNHPVVHVSWNDATAYARWAGKRLPTEAEWEYAARGGLAGRRYAWGDELTPGGRWRCNIWQGRFPHVNTAEDGHLSTAPVKSYRPNGHGLWNTAGNVWEWCSDWFSPTYYAESPTVDPHGPGTGAARVLRGGSYLCHDSYCNRYRVAARSSNTPDSSSGNLGFRCANDADLTSGSAAE
In the case of B3, the KM entry in data set [1] is reported as “KM=96 µM”.
